In this test the target is HIV-1LAI envelope gp120 labeled with radioactive iodine (HIV-1 LAI), P03377. The test can be described thus: 125I-gp120, peptide array.

Several values for one entry are separate records, joined by “and”; a condition that tells them apart may be missing. Equal entries are not always repeated.

Take GYHDEAISTVVLATQMTL (modifications not checked) [STRL33 181-198]: the counts minus background (counts per 20 min) is 754 and 1180. Under YAGIHEWVFGQVMCKSLL (modifications not checked) [STRL33 89-106] stands 5910 and 6250. To IYDINYYTSEPCQKINVK (modifications not checked) [CCR5 9-26] belongs 228. To PQIIYGNVFNLDKLICGY (modifications not checked) [STRL33 165-182] belongs -18.5 and -37.5; to AVVHAVFALKARTVTFGV (modifications not checked) [CCR5 129-146], 34. Take HEWVFGQVMCKSLLGIYT (modifications not checked) [STRL33 93-110]: the counts minus background (counts per 20 min) is 3390 and 3470.

On to AGGFQKHRSLKIIFLVMA (modifications not checked) [STRL33 221-238], for which the counts minus background (counts per 20 min) was 340 and 260.

As for SLKIIFLVMAVFLLTQMP (modifications not checked) [STRL33 229-246], the counts minus background (counts per 20 min) is 612 and 854. To IRSTHWEYYAMTSFHYTI (modifications not checked) [STRL33 253-270] belongs 1570 and 1810.

Regarding AFVSLKFRKNFWKLVKDI (modifications not checked) [STRL33 289-306], the counts minus background (counts per 20 min) is 808 and 1040.

Turning to VCYSVIIKTLLHAGGFQK (modifications not checked) [STRL33 209-226], the counts minus background (counts per 20 min) was 1330 and 1140. Under AYLRACLNPVLYAFVSLK (modifications not checked) [STRL33 277-294] stands 1800 and 1850. Take FSGIFFIILLTIDRYLAV (modifications not checked) [CCR5 113-130]: the counts minus background (counts per 20 min) stood at 83.

In the case of YAMTSFHYTIMVTEAIAY (modifications not checked) [STRL33 261-278], the counts minus background (counts per 20 min) is 2690 and 2360. To TLLHAGGFQKHRSLKIIF (modifications not checked) [STRL33 217-234] belongs 1040 and 1000. On to EAISTVVLATQMTLGFFL (modifications not checked) [STRL33 185-202], for which the counts minus background (counts per 20 min) was 3970 and 3750. Under QAKRMTWGKVTSLLIWVI (modifications not checked) [STRL33 141-158] stands -71.5 and -31.5; under SEDNSKTFSASHNVEATS (modifications not checked) [STRL33 321-338], 524 and 434. Under GNTMCQLLTGLYFIGFFS (modifications not checked) [CCR5 97-114] stands 941.

Take CQLLTGLYFIGFFSGIFF (modifications not checked) [CCR5 101-118]: the counts minus background (counts per 20 min) stood at 489. Turning to DRYLAVVHAVFALKARTV (modifications not checked) [CCR5 125-142], the counts minus background (counts per 20 min) came to 62. Turning to PVLYAFVSLKFRKNFWKL (modifications not checked) [STRL33 285-302], the counts minus background (counts per 20 min) is 1860 and 2150.

Turning to LKARTVTFGVVTSVITWV (modifications not checked) [CCR5 137-154], the counts minus background (counts per 20 min) turned out to be 74.

As for TVVLATQMTLGFFLPLLT (modifications not checked) [STRL33 189-206], the counts minus background (counts per 20 min) is 2330 and 2390.

As for LMKFIRSTHWEYYAMTSF (modifications not checked) [STRL33 249-266], the counts minus background (counts per 20 min) is 934 and 950. For the molecule YAAAQWDFGNTMCQLLTG (modifications not checked) [CCR5 89-106], the counts minus background (counts per 20 min) turned out to be 494. To VISLLVSLPQIIYGNVFN (modifications not checked) [STRL33 157-174] belongs -60.5 and -128; to KLICGYHDEAISTVVLAT (modifications not checked) [STRL33 177-194], 1360 and 1600; to IFLVMAVFLLTQMPFNLM (modifications not checked) [STRL33 233-250], 386 and 772. To ACLNPVLYAFVSLKFRKN (modifications not checked) [STRL33 281-298] belongs 4170 and 4520. To SKTFSASHNVEATSMFQL (modifications not checked) [STRL33 325-342] belongs 1520 and 1240; to ATQMTLGFFLPLLTMIVC (modifications not checked) [STRL33 193-210], 2370 and 2440. As for TEAIAYLRACLNPVLYAF (modifications not checked) [STRL33 273-290], the counts minus background (counts per 20 min) was 604 and 480.

In the case of FIGFFSGIFFIILLTIDR (modifications not checked) [CCR5 109-126], the counts minus background (counts per 20 min) came out at 76. To LTMIVCYSVIIKTLLHAG (modifications not checked) [STRL33 205-222] belongs 2790 and 2650. On to QWKSSEDNSKTFSASHNV (modifications not checked) [STRL33 317-334], for which the counts minus background (counts per 20 min) was 464 and 534.

Consider FLPLLTMIVCYSVIIKTL (modifications not checked) [STRL33 201-218], for which the counts minus background (counts per 20 min) was 1270 and 1200. Regarding MPFNLMKFIRSTHWEYYA (modifications not checked) [STRL33 245-262], the counts minus background (counts per 20 min) was 2170 and 2180. Under FWAHYAAAQWDFGNTMCQ (modifications not checked) [CCR5 85-102] stands 212; under SFHYTIMVTEAIAYLRAC (modifications not checked) [STRL33 265-282], 762 and 1030; under MLILTCITVDRFIVVVKA (modifications not checked) [STRL33 117-134], 298 and 228. Under MAVFLLTQMPFNLMKFIR (modifications not checked) [STRL33 237-254] stands 2260 and 2840; under YGNVFNLDKLICGYHDEA (modifications not checked) [STRL33 169-186], -41.5 and -20.5; under FGQVMCKSLLGIYTINFY (modifications not checked) [STRL33 97-114], 1260 and 1350. Under LLTQMPFNLMKFIRSTHW (modifications not checked) [STRL33 241-258] stands 2510 and 3150; under KVTSLLIWVISLLVSLPQ (modifications not checked) [STRL33 149-166], -39.5 and -118; under HWEYYAMTSFHYTIMVTE (modifications not checked) [STRL33 257-274], 2040 and 3070. As to LLTIDRYLAVVHAVFALK (modifications not checked) [CCR5 121-138], the counts minus background (counts per 20 min) came out at 31.

Take GVSHQWKSSEDNSKTFSA (modifications not checked) [STRL33 313-330]: the counts minus background (counts per 20 min) is 208 and 306. To LLIWVISLLVSLPQIIYG (modifications not checked) [STRL33 153-170] belongs 42.5 and 75.5. Regarding VDRFIVVVKATKAYNQQA (modifications not checked) [STRL33 125-142], the counts minus background (counts per 20 min) was 104 and 53.5. To FNLDKLICGYHDEAISTV (modifications not checked) [STRL33 173-190] belongs 1070 and 1080; to QKHRSLKIIFLVMAVFLL (modifications not checked) [STRL33 225-242], 810 and 814. Under AVFALKARTVTFGVVTSV (modifications not checked) [CCR5 133-150] stands 63; under QWDFGNTMCQLLTGLYFI (modifications not checked) [CCR5 93-110], 1020. Under MCKSLLGIYTINFYTSML (modifications not checked) [STRL33 101-118] stands 1510 and 1280; under LKFRKNFWKLVKDIGCLP (modifications not checked) [STRL33 293-310], 920 and 958; under VIIKTLLHAGGFQKHRSL (modifications not checked) [STRL33 213-230], 962 and 682. As to TIMVTEAIAYLRACLNPV (modifications not checked) [STRL33 269-286], the counts minus background (counts per 20 min) is 140 and 272. As to FFIILLTIDRYLAVVHAV (modifications not checked) [CCR5 117-134], the counts minus background (counts per 20 min) amounted to 77.

(Values after patent publication US7304127.)
